In patent US20250011450A1:
Positions count from the first letter of the chain named. Blank lines part the entries; values can stand above or below the binder they belong to.

Experiments:
[1] = molecular target: OX40 expressed on Jurkat cells (NF-kB luciferase reporter line) (UniProt P43489); experiment: cell-based or functional assay
[2] = molecular target: anti-OX40 clone 3C8, iAbaff2 IgG; experiment: SEC-MALS at 1.9 mg/ml, self-association
[3] = molecular target: anti-OX40 clone 3C8, iAbaff2 IgG; experiment: SEC-MALS at 0.38 mg/ml, self-association
[4] = molecular target: anti-OX40 clone 3C8, iAbaff2 IgG; experiment: SEC-MALS, self-association
[5] = molecular target: anti-OX40 clone 3C8, iAbaff2 IgG; experiment: SEC-MALS at 4.9 mg/ml, self-association

Chain of UniProt P43489 (P43489 29-277 limits assumed): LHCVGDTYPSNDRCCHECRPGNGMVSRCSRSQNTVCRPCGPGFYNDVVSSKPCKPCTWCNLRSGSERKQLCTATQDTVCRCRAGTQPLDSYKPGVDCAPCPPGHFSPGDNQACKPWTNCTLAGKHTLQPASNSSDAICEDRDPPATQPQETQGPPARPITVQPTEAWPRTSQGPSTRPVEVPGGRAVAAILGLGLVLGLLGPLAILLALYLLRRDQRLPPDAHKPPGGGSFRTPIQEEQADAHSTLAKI

EC50 of OX40 agonist activity (Jurkat OX40 NF-kB luciferase reporter), fold against iAb IgG [1]: 100 fold | maximal OX40 agonist activity (Jurkat OX40 NF-kB luciferase reporter), fold against iAb IgG [1]: 2 fold
B1: anti-OX40 clone 3C8, iAbaff1 monomeric Fab (Fab, part only; not given: Light chain, CH1 and tag, not shown: small tags and cut ends)
heavy, part: EVQLVQSGAEVKKPGATVVVLCKASGYAFTNYLIEWVRQAPGQGLEWIGVINPGSGDTYYSEKFKGRVTLFADTSTSQAILILTSLRSEDTAVYYCARDRLDYWGQGTLVTVSS

SEC-MALS Molecular Weight (Da) [2]: 225000 Da | SEC-MALS Molecular Weight (Da) [3]: 204000 Da | SEC-MALS Molecular Weight (Da) [4]: 227000 Da | SEC-MALS Molecular Weight (Da) [5]: 244000 Da
B2: anti-OX40 clone 3C8, iAbaff2 IgG (antibody, part only; not given: Light chain, V domains shown, part only)
VH: B1 heavy, part with T17S, V19I, L21S, T69F, Q78T, I80Y, I82V, T84S
